These results are taken from US20250382352A1 (SCG CELL THERAPY PTE, published 2025).

Residue numbers refer to the chain shown, from its start.

As a reminder, the EC50 (read off the curve) is the midpoint of the concentration-response curve. The term EC50 denotes the concentration that produces a half-maximal response. For orientation: Kd means the free concentration of one partner at which half of the binding sites on the other are occupied at equilibrium, for simple one-to-one binding.

First the molecules themselves.
T1: HBsAg recombinant protein (hepatitis B virus)
T1 chain: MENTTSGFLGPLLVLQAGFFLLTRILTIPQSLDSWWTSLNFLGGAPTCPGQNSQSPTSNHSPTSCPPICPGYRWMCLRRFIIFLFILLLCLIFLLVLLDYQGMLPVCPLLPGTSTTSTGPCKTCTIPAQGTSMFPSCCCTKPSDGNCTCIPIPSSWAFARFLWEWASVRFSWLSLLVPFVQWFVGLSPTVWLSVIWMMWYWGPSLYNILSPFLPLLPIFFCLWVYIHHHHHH

T2: cynomolgus CD3ε recombinant protein (cynomolgus, UniProt Q95LI5 22-117)
T2 construct: also called cynoCD3ε; cynomolgus CD38 [sic]
T2 sequence (looked up): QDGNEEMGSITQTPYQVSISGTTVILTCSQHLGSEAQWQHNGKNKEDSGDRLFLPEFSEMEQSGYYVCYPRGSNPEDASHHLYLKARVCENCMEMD

B1: BsAb2-6 (C8 scFv fused to the C-terminus of the heavy chain of the murine anti-CD3 Ab via a linker) (bispecific antibody)
chain 1: not shown
chain 2: QAVVTQESALTTSPGETVTLTCRSSTGAVTTSNYANWVQEKPDHLFTGLIGGTNKRAPGVPARFSGSLIGDKAALTITGAQTEDEAIYFCALWYSNLWVFGGGTKLTVLRTVAAPSVFIFPPSDEQLKSGTASVVCLLNNFYPREAKVQWKVDNALQSGNSQESVTEQDSKDSTYSLSSTLTLSKADYEKHKVYACEVTHQGLSSPVTKSFNRGEC
B2: BsAb2-6-001 (bispecific antibody)
heavy: not shown
light: QTVVTQEPSLTVSPGGTVTLTCRSSTGAVTTSNYANWVQQKPGQAPRALIGGTNKRAPWTPARFSGSLLGDKAALTLSGVQPEDEAEYYCALWYSNLWVFGGGTKLTVLRTVAAPSVFIFPPSDEQLKSGTASVVCLLNNFYPREAKVQWKVDNALQSGNSQESVTEQDSKDSTYSLSSTLTLSKADYEKHKVYACEVTHQGLSSPVTKSFNRGEC
notes: also called VH1VL1; SCG2-6-001
B3: BsAb2-6-016 (bispecific antibody)
heavy: not shown
light: B2 light
notes: also called VH4VL1; SCG2-6-016
B4: BsAb2-6-011 (bispecific antibody)
heavy: not shown
light: B2 light
notes: also called VH3VL1; SCG2-6-011
B5: BsAb2-6-018 (bispecific antibody)
heavy: not shown
light: B2 light with T2A, A48G, W59G, Y89F
notes: also called VH4VL3
B6: BsAb2-6-021 (bispecific antibody)
heavy: not shown
light: B2 light
notes: also called VH5VL1; SCG2-6-021
B7: BsAb2-6-017 (bispecific antibody)
heavy: not shown
light: B2 light with A48G, W59G
notes: also called VH4VL2; SCG2-6-017
B8: BsAb2-5-011 (bispecific antibody)
heavy: not shown
light: B2 light
notes: also called VH3VL1; SCG2-5-011
B9: BsAb2-5-018 (bispecific antibody)
heavy: not shown
light: B2 light with T2A, A48G, W59G, Y89F
notes: also called VH4VL3
B10: BsAb2-5-013 (bispecific antibody)
heavy: not shown
light: B2 light with T2A, A48G, W59G, Y89F
notes: also called VH3VL3
B11: BsAb2-5-012 (bispecific antibody)
heavy: not shown
light: B2 light with A48G, W59G
notes: also called VH3VL2
B12: BsAb2-6-006 (bispecific antibody)
heavy: not shown
light: B2 light
notes: also called VH2VL1; SCG2-6-006
B13: BsAb2-6-026 (bispecific antibody)
heavy: not shown
light: B2 light
notes: also called VH6VL1; SCG2-6-026
B14: BsAb2-6-013 (bispecific antibody)
heavy: not shown
light: B2 light with T2A, A48G, W59G, Y89F
notes: also called VH3VL3
B15: BsAb2-6-012 (bispecific antibody)
heavy: not shown
light: B2 light with A48G, W59G
notes: also called VH3VL2
B16: BsAb2-6-015 (bispecific antibody)
heavy: not shown
light: QTVVTQEPSFSVSPGGTVTLTCRSSTGAVTTSNYANWVQQTPGQAPRGLIGGTNKRAPGVPDRFSGSILGDKAALTITGAQADDESDYYCALWYSNLWVFGGGTKLTVLRTVAAPSVFIFPPSDEQLKSGTASVVCLLNNFYPREAKVQWKVDNALQSGNSQESVTEQDSKDSTYSLSSTLTLSKADYEKHKVYACEVTHQGLSSPVTKSFNRGEC
notes: also called VH3VL5
B17: BsAb2-6-020 (bispecific antibody)
heavy: not shown
light: B16 light
notes: also called VH4VL5
B18: BsAb2-5 (C8 scFv fused to the N-terminal of the heavy chain of the murine anti-CD3 mAb) (bispecific antibody)
chain 1: not shown
chain 2: B1 chain 2

T5 sequence (P07766 23-207): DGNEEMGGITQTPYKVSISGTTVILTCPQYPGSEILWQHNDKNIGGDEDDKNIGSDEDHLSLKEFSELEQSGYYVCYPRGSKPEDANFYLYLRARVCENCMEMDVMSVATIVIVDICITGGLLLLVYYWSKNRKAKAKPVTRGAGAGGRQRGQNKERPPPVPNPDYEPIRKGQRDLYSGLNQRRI

The target of one test is T3, rhesus CD3ε recombinant protein (rhesus).
T3 construct: also called rhesus CD38 [sic]
The test can be described thus: ELISA, recombinant rhesus CD3ε. (In general: In an ELISA, binding on a coated surface is turned into a signal by an enzyme label.)
Take B1: the “EC50 (read off the curve)” value was about 0.07 nM.

For a further test, the target named is T4, human CD3ε recombinant protein (human, UniProt P07766 23-126).
T4 construct: also called human CD3E; huCD3ε
T4 sequence (P07766 23-126 limits assumed): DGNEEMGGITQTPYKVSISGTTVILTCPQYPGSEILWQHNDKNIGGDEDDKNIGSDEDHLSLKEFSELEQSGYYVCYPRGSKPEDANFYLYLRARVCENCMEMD
Kind of test: ELISA, recombinant human CD3ε.
Take B1: the “EC50 (read off the curve)” value lay in the range of 0.1 to 0.2 nM.

The target in another test is T1, HBsAg recombinant protein. The test can be described thus: ELISA, recombinant protein. As for the experimental part:
(§1) Anti-HBsAg/anti-CD3 bispecific antibodies generated in Example 1 are analyzed by standard ELISA techniques for their binding properties to HBsAg, human CD3E, and rhesus CD3ε recombinant protein, respectively.
Turning to B2, the EC50 was found to be 0.5 nM.

Regarding B3, the EC50 was found to be 0.71 nM.

B4: the EC50 was 0.44 nM.

On to B5, for which the EC50 was 0.73 nM.

B6: the concentration giving a half-maximal response (EC50) is 0.8 nM.

Take B7: the EC50 is 0.6 nM.

In the case of B8, the EC50 was 0.2 nM.

For the molecule B9, the EC50 is 0.12 nM.

For B10, the EC50 came to 0.17 nM.

Turning to B11, the EC50 is 0.16 nM.

For B12, the EC50 stood at 0.31 nM.

As to B13, the EC50 is 0.69 nM.

As to B14, the EC50 was 0.47 nM.

On to B15, for which the EC50 was 0.45 nM.

As to B16, the EC50 was 0.33 nM.

For the molecule B17, the EC50 was 0.56 nM.

Another test deals with T4, human CD3ε recombinant protein. The test can be described thus: ELISA, recombinant protein. How it is done: as §1
With B3, the EC50 stood at 0.8 nM.

Regarding B4, the EC50 was determined as 0.66 nM.

On to B5, for which the EC50 was 0.5 nM.

Turning to B7, the EC50 was determined as 0.4 nM.

For B8, the EC50 was 1.85 nM.

Regarding B9, the EC50 was 0.33 nM.

For the molecule B10, the EC50 was 0.33 nM.

As for B11, the EC50 amounted to 0.32 nM.

Take B14: the EC50 is 0.33 nM.

B15: the EC50 was 0.32 nM.

For B16, the EC50 turned out to be 0.19 nM.

With B17, the EC50 was determined as 0.32 nM.

For a further test, the target named is T3, rhesus CD3ε recombinant protein. Kind of test: ELISA, recombinant protein. How it is done:
as §1
As to B2, the EC50 is 0.29 nM.

For the molecule B3, the EC50 is 0.36 nM.

Consider B4, for which the EC50 is 0.34 nM.

Take B5: the EC50 stood at 0.16 nM.

In the case of B6, the EC50 was 0.83 nM.

Regarding B7, the EC50 came to 0.15 nM.

As to B8, the EC50 was 1.99 nM.

Regarding B9, the EC50 turned out to be 0.24 nM.

As to B10, the EC50 amounted to 0.26 nM.

For B11, the EC50 turned out to be 0.24 nM.

Consider B12, for which the 50% effective concentration (EC50) worked out at 0.76 nM.

Turning to B13, the EC50 worked out at 0.63 nM.

Take B14: the EC50 stood at 0.26 nM.

For B15, the EC50 turned out to be 0.24 nM.

On to B16, for which the EC50 was 0.18 nM.

Regarding B17, the EC50 was 0.12 nM.

In another test the target is T1, HBsAg recombinant protein. Kind of test: ELISA, recombinant HBsAg.
As for B1, the half-maximal effective concentration (EC50 (read off the curve)) is about 0.2 nM.

The next test addresses T3, rhesus CD3ε recombinant protein. Kind of test: ELISA, recombinant rhesus CD3ε. The source holds these as a separate data set.
Turning to B1, the “EC50 (read off the curve)” value is about 0.07 nM.

The target in the next test is T4, human CD3ε recombinant protein. Kind of test: ELISA, recombinant human CD3ε. This is another data set of the same source.
B1: the “EC50 (read off the curve)” value was about 0.3 nM.

A further test has as its target T1, HBsAg recombinant protein. The test can be described thus: SPR (Biacore), bsAb on protein A chip, antigen in flow. As for the experimental part: (§2) Binding affinity of anti-HBsAg/anti-CD3 constructs to HBsAg and human/cynomolgus CD3ε is characterized by SPR using Biacore […] (GE Healthcare). Specifically, the anti-HBsAg/anti-CD3 bispecific antibodies were immobilized on protein A chip at a flow rate of 10 μL/min, and gradient dilution of huCD3ε, cynoCD3ε, or HBsAg antigen was used as the mobile phase. The binding condition was 10 μL/min×180 s. The dissociation condition was 10 μL/min×400 s and the regeneration conditions were 30 μL/min×30 s at pH1.5 Gly. FIG. 10 and FIG. 11 show the kinetic curves of bsAb-2-5 and bsAb-2-6 constructs bind to human and cynomolgus CD3 recombinant proteins, respectively. FIG. 12 show the kinetic curves of bsAb2-5 and bsAb2-6 constructs bind to HBsAg.
In the case of B2, the Kd amounted to 0.0491 nM.

Take B3: the Kd amounted to 0.054 nM.

For the molecule B4, the Kd is 0.375 nM.

Turning to B6, the Kd came out at 0.348 nM.

With B7, the Kd stood at 0.0321 nM.

For the molecule B8, the Kd was determined as 0.0932 nM.

B12: the Kd is 0.00116 nM.

For the molecule B13, the Kd was 0.623 nM.

For another test, the target named is T4, human CD3ε recombinant protein. The description is as above. As for the experimental part:
as §2
B3: the Kd was 35.3 nM.

For the molecule B4, the Kd worked out at 29.2 nM.

As to B7, the Kd came out at 0.851 nM.

In the case of B8, the Kd amounted to 12.4 nM.

For another test, the target named is T2, cynomolgus CD3ε recombinant protein. The test is described as above. How it is done:
as §2
Turning to B3, the Kd amounted to 36 nM.

In the case of B6, the Kd was found to be 148 nM.

In the case of B7, the Kd came out at 0.737 nM.

With B12, the Kd came to 9.23 nM.

With B13, the Kd is 97.4 nM.

The target of the next test is T1, HBsAg recombinant protein. The test can be described thus: ELISA, recombinant HBsAg. The source holds these as a separate data set.
Regarding B1, the “EC50 (read off the curve)” value was about 0.3 nM.

A further test addresses T5, CD3ε expressed on the surface of Jurkat cells (human, UniProt P07766 23-207).
T5 construct: whole, on cells; also called CD3 expressed on human leukemic T cell line Jurkat; hCD3ε
The test can be described thus: flow cytometry on Jurkat cells (panel title: Binding with CD3+ T cell), MFI. For orientation: In flow cytometry, cells or beads pass a laser one at a time.
In the case of B18, the “EC50 (read off the curve)” value was about 0.05 nM.
